Usually Km stands for the concentration of substrate that gives half-maximal velocity. As a reminder, the kcat is the number of substrate molecules converted per active site and unit of time at saturation.

Data on one protein can be found in article PMC4633474, “Kinetic properties and stability of glucose dehydrogenase from Bacillus amyloliquefaciens SB5 and its potential for cofactor regeneration” (AMB Express, 2015).

What all share (assay): purified protein
Common to all, as to assay type: biochemical, Bacillus amyloliquefaciens

Substrate in data set [1]: NC(=O)c1ccc[n+]([C@@H]2O[C@H](COP(=O)(O)OP(=O)(O)OC[C@H]3O[C@@H](n4cnc5c(N)ncnc54)[C@H](O)[C@@H]3O)[C@@H](O)[C@H]2O)c1
To be noted: co-substrate glucose, apparent, pH and temperature of kinetics not stated (default assay Tris-Cl pH 8 or CPB buffer, 37 °C), varied: cofactor.

Substrate in data set [2]: OC[C@H]1O[C@@H](O)[C@H](O)[C@@H](O)[C@@H]1O
To be noted: with 0.5 mM NADP+, apparent, pH and temperature of kinetics not stated (default assay Tris-Cl pH 8 or CPB buffer, 37 °C).

Substrate in data set [3]: NC(=O)c1ccc[n+]([C@@H]2O[C@H](COP(=O)(O)OP(=O)(O)OC[C@H]3O[C@@H](n4cnc5c(N)ncnc54)[C@H](OP(=O)(O)O)[C@@H]3O)[C@@H](O)[C@H]2O)c1
To be noted: co-substrate glucose, apparent, pH and temperature of kinetics not stated (default assay Tris-Cl pH 8 or CPB buffer, 37 °C), varied: cofactor.

B1: GluDH-BA (Bacillus amyloliquefaciens) (protein)
chain: MYTDLKGKVVAITGASSGLGKAMAIRFGQEQAKVVVNYYSNEKDAQTVKEEIQKAGGEAVIIQGDVTKEEDVKNIVQTAVKEFGTLDVMINNAGMENPVQSHEMPLKDWNKVINTNLTGAFLGSREAIKYYVENDIQGNVINMSSVHEMIPWPLFVHYAASKGGIKLMTETLALEYAPKRIRVNNIGPGAINTPINAEKFADPVQRKDVESMIPMGYIGEPEEIAAVAVWLASKESSYVTGITLFADGGMTKYPSFQAGRG
notes: full length (261 aa, 28 kDa), 6xHis inserted right after start Met, pET23b, E. coli BL21(DE3), Ni-purified; tag cleavage not mentioned
Consider B1, for which the Km in data set [1] worked out at 250 ± 30 µM; in data set [2] it was 5500 ± 280 µM; in data set [3] it was 50 ± 4 µM. In addition, the kcat in data set [2] and in data set [3] was 70 ± 0.3 s⁻¹ each time.
